Reference: the supplement of paper PMC9112550, “Optimization of the antimicrobial peptide Bac7 by deep mutational scanning” (BMC Biology, 2022)

tested on: Escherichia coli TOP10; assay: shrunken log2 fold change of peptide-encoding DNA abundance (4.5 h post-induction vs induction); higher = less antimicrobial activity (less host growth inhibition); details: time post-induction: 4.5 h; library: site-saturation at positions 5, 18, 19, 20
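Also: peptides expressed intracellularly from a pBAD plasmid library in pooled LB shake-flask culture, induced with 0.3% L-arabinose, DNA abundance read by NGS, three biological replicates, DESeq2 with apeglm shrinkage.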

Row | Sequence | shrunken log2 fold change
1 | RRIRWRPPRLPRPRPRPWMKPRP | -0.225
2 | RRIRIRPPRLPRPRPRPPLDPRP | 0.0528
3 | RRIRQRPPRLPRPRPRPAPDPRP | 0.261
4 | RRIRARPPRLPRPRPRPTTKPRP | 0.541
5 | RRIRFRPPRLPRPRPRPAQLPRP | 0.36
6 | RRIRTRPPRLPRPRPRPPNWPRP | 0.845
7 | RRIRIRPPRLPRPRPRPAYWPRP | -0.0439
8 | RRIRFRPPRLPRPRPRPFSPPRP | -1.12
9 | RRIRIRPPRLPRPRPRPPLQPRP | 0.0345
10 | RRIRLRPPRLPRPRPRPAQCPRP | -0.23
11 | RRIRGRPPRLPRPRPRPFIMPRP | -0.285
12 | RRIRPRPPRLPRPRPRPFYRPRP | 0.0278
13 | RRIRGRPPRLPRPRPRPYMCPRP | 0.0864
14 | RRIRGRPPRLPRPRPRPGVYPRP | 0.0589
15 | RRIRDRPPRLPRPRPRPVTIPRP | -0.0184
16 | RRIRSRPPRLPRPRPRPPYDPRP | -0.397
17 | RRIRCRPPRLPRPRPRPCKIPRP | -0.543
18 | RRIRIRPPRLPRPRPRPMYVPRP | 0.00823
19 | RRIRFRPPRLPRPRPRPIDFPRP | -0.0919
20 | RRIRQRPPRLPRPRPRPNKWPRP | -0.0433
21 | RRIRRRPPRLPRPRPRPMGGPRP | 0.083
22 | RRIRRRPPRLPRPRPRPTSRPRP | 0.312
23 | RRIRRRPPRLPRPRPRPYHTPRP | -1.28
24 | RRIRSRPPRLPRPRPRPFNYPRP | 0.0477
25 | RRIRYRPPRLPRPRPRPMGFPRP | -0.179

Row | Sequence | shrunken log2 fold change
26 | RRIRNRPPRLPRPRPRPTPKPRP | 0.222
27 | RRIRTRPPRLPRPRPRPFRAPRP | -0.597
28 | RRIRVRPPRLPRPRPRPDIWPRP | 0.0543
29 | RRIRLRPPRLPRPRPRPEPIPRP | 0.0321
30 | RRIRARPPRLPRPRPRPRQIPRP | 0.313
31 | RRIRMRPPRLPRPRPRPDSFPRP | -0.0586
32 | RRIRIRPPRLPRPRPRPDMMPRP | 0.0293
33 | RRIRDRPPRLPRPRPRPDYKPRP | 0.00454
34 | RRIRYRPPRLPRPRPRPVHEPRP | 0.0155
35 | RRIRWRPPRLPRPRPRPWQMPRP | 0.0308
36 | RRIRGRPPRLPRPRPRPDMNPRP | 1.35
37 | RRIRWRPPRLPRPRPRPNKRPRP | 0.149
38 | RRIRWRPPRLPRPRPRPSMPPRP | -0.423
39 | RRIRRRPPRLPRPRPRPEWMPRP | 0.126
40 | RRIRLRPPRLPRPRPRPFLYPRP | -0.656
41 | RRIRMRPPRLPRPRPRPAEPPRP | 0.449
42 | RRIRMRPPRLPRPRPRPEEPPRP | 0.0975
43 | RRIRNRPPRLPRPRPRPSKQPRP | 0.00527
44 | RRIRMRPPRLPRPRPRPQYYPRP | -0.805
45 | RRIRFRPPRLPRPRPRPQTLPRP | -0.399
46 | RRIRPRPPRLPRPRPRPTDAPRP | 0.12
47 | RRIRARPPRLPRPRPRPIMCPRP | -0.0139
48 | RRIRKRPPRLPRPRPRPLPPPRP | 1.01
49 | RRIRFRPPRLPRPRPRPFVSPRP | -0.296
50 | RRIRVRPPRLPRPRPRPDPKPRP | 0.203

Row | Sequence | shrunken log2 fold change
51 | RRIRPRPPRLPRPRPRPWVFPRP | 0.0691
52 | RRIRQRPPRLPRPRPRPPLLPRP | -0.114
53 | RRIRDRPPRLPRPRPRPFFCPRP | 0.55
54 | RRIRRRPPRLPRPRPRPCHVPRP | -0.238
55 | RRIRWRPPRLPRPRPRPVSRPRP | 0.616
56 | RRIRERPPRLPRPRPRPIFSPRP | 0.0654
57 | RRIRTRPPRLPRPRPRPKRNPRP | 0.366
58 | RRIRRRPPRLPRPRPRPVYTPRP | 0.0292
59 | RRIRMRPPRLPRPRPRPGFMPRP | 0.0795
60 | RRIRMRPPRLPRPRPRPLHSPRP | 0.0835
61 | RRIRYRPPRLPRPRPRPTEEPRP | -0.2
62 | RRIRWRPPRLPRPRPRPRSRPRP | 0.385
63 | RRIRIRPPRLPRPRPRPCMMPRP | -0.654
64 | RRIRQRPPRLPRPRPRPKWMPRP | -0.131
65 | RRIRARPPRLPRPRPRPYIYPRP | -0.346
66 | RRIRHRPPRLPRPRPRPGPQPRP | 0.0368
67 | RRIRIRPPRLPRPRPRPRQQPRP | 0.0393
68 | RRIRYRPPRLPRPRPRPTENPRP | -0.239
69 | RRIRSRPPRLPRPRPRPVTDPRP | 0.102
70 | RRIRLRPPRLPRPRPRPVQAPRP | -0.0131
71 | RRIRLRPPRLPRPRPRPIHDPRP | -0.302
72 | RRIRSRPPRLPRPRPRPASGPRP | 0.268
73 | RRIRFRPPRLPRPRPRPGYLPRP | -0.0745
74 | RRIRGRPPRLPRPRPRPLKPPRP | 0.609
75 | RRIRMRPPRLPRPRPRPLWWPRP | 0.795

Row | Sequence | shrunken log2 fold change
76 | RRIRVRPPRLPRPRPRPMCTPRP | -0.0103
77 | RRIRNRPPRLPRPRPRPTAFPRP | 0.00576
78 | RRIRNRPPRLPRPRPRPMCGPRP | -0.301
79 | RRIRYRPPRLPRPRPRPFCEPRP | -0.456
80 | RRIRMRPPRLPRPRPRPSPSPRP | 0.588
81 | RRIRFRPPRLPRPRPRPWEPPRP | -0.373
82 | RRIRTRPPRLPRPRPRPTQTPRP | -0.0408
83 | RRIRARPPRLPRPRPRPLREPRP | 1.16
84 | RRIRERPPRLPRPRPRPKGIPRP | -0.000842
85 | RRIRLRPPRLPRPRPRPMYRPRP | 0.0136
86 | RRIRVRPPRLPRPRPRPNLAPRP | 0.0958
87 | RRIRFRPPRLPRPRPRPIPEPRP | 0.236
88 | RRIRERPPRLPRPRPRPVRPPRP | 0.849
89 | RRIRNRPPRLPRPRPRPYWHPRP | -0.0277
90 | RRIRCRPPRLPRPRPRPYKFPRP | -0.279
91 | RRIRIRPPRLPRPRPRPRFFPRP | -0.123
92 | RRIRKRPPRLPRPRPRPALRPRP | 0.455
93 | RRIRGRPPRLPRPRPRPWGSPRP | 0.268
94 | RRIRFRPPRLPRPRPRPPHFPRP | 0.341
95 | RRIRFRPPRLPRPRPRPDNNPRP | -0.4
96 | RRIRTRPPRLPRPRPRPIDEPRP | 0.0904
97 | RRIRYRPPRLPRPRPRPRGCPRP | -0.286
98 | RRIRLRPPRLPRPRPRPLMRPRP | 0.807
99 | RRIRSRPPRLPRPRPRPIKCPRP | -0.0332
100 | RRIRLRPPRLPRPRPRPCTIPRP | -0.298

Row | Sequence | shrunken log2 fold change
101 | RRIRNRPPRLPRPRPRPVKCPRP | 0.0182
102 | RRIRFRPPRLPRPRPRPIEAPRP | -0.181
103 | RRIRQRPPRLPRPRPRPTLLPRP | -0.0944
104 | RRIRWRPPRLPRPRPRPNRKPRP | -0.239
105 | RRIRPRPPRLPRPRPRPMHPPRP | 0.324
106 | RRIRSRPPRLPRPRPRPSPKPRP | 0.0583
107 | RRIRDRPPRLPRPRPRPNDTPRP | 0.0133
108 | RRIRIRPPRLPRPRPRPFESPRP | -0.218
109 | RRIRVRPPRLPRPRPRPNGIPRP | -0.161
110 | RRIRFRPPRLPRPRPRPSRIPRP | -0.119
111 | RRIRIRPPRLPRPRPRPKSTPRP | -0.214
112 | RRIRCRPPRLPRPRPRPCDCPRP | -0.139
113 | RRIRMRPPRLPRPRPRPLPRPRP | 2.48
114 | RRIRVRPPRLPRPRPRPPKHPRP | 0.0761
115 | RRIRMRPPRLPRPRPRPILSPRP | 0.00774
116 | RRIRRRPPRLPRPRPRPRCIPRP | 0.174
117 | RRIRQRPPRLPRPRPRPPHYPRP | 0.37
118 | RRIRLRPPRLPRPRPRPRRRPRP | 0.395
119 | RRIRVRPPRLPRPRPRPSPPPRP | -0.0761
120 | RRIRRRPPRLPRPRPRPTREPRP | 0.892
121 | RRIRNRPPRLPRPRPRPTTPPRP | 0.152
122 | RRIRERPPRLPRPRPRPQHIPRP | -0.15
123 | RRIRMRPPRLPRPRPRPPSMPRP | 0.761
124 | RRIRKRPPRLPRPRPRPATRPRP | 0.423
125 | RRIRSRPPRLPRPRPRPLNYPRP | -0.166

Row | Sequence | shrunken log2 fold change
126 | RRIRKRPPRLPRPRPRPWIIPRP | -0.277
127 | RRIRHRPPRLPRPRPRPLENPRP | 0.00854
128 | RRIRIRPPRLPRPRPRPLTDPRP | -0.201
129 | RRIRGRPPRLPRPRPRPAGFPRP | 0.775
130 | RRIRPRPPRLPRPRPRPHHMPRP | -0.778
131 | RRIRRRPPRLPRPRPRPKMFPRP | -0.131
132 | RRIRPRPPRLPRPRPRPWKYPRP | -0.269
133 | RRIRGRPPRLPRPRPRPHFSPRP | -0.115
134 | RRIRTRPPRLPRPRPRPPQTPRP | 0.457
135 | RRIRTRPPRLPRPRPRPKWNPRP | 0.0454
136 | RRIRIRPPRLPRPRPRPYHEPRP | -0.216
137 | RRIRMRPPRLPRPRPRPKRLPRP | 0.0697
138 | RRIRDRPPRLPRPRPRPQVFPRP | -0.101
139 | RRIRQRPPRLPRPRPRPHIQPRP | -0.444
140 | RRIRFRPPRLPRPRPRPMTWPRP | 0.478
141 | RRIRMRPPRLPRPRPRPDVMPRP | 0.147
142 | RRIRHRPPRLPRPRPRPQQNPRP | -0.0705
143 | RRIRTRPPRLPRPRPRPAKNPRP | -0.0492
144 | RRIRVRPPRLPRPRPRPDFMPRP | -0.0875
145 | RRIRTRPPRLPRPRPRPAHEPRP | 0.197
146 | RRIRVRPPRLPRPRPRPLDVPRP | -0.277
147 | RRIRQRPPRLPRPRPRPSLAPRP | 0.404
148 | RRIRKRPPRLPRPRPRPGIFPRP | 0.409
149 | RRIRDRPPRLPRPRPRPMLVPRP | 0.116
150 | RRIRVRPPRLPRPRPRPTNVPRP | -0.374
